Results on one molecule are retold here after patent US8691960B2, “Oxidoreductases for enantioselective reactions” (Duke University, priority 2012, dated 2014).

Common to all, as to format: biochemical
Series [1] in a line: Kinetic characterization of ScHIDH mutants: KM 2-oxoadipate and Vmax. The protocol: (§1) Reaction rates are NADH oxidation per unit time per unit of purified enzyme or crude lysate and 1 Unit (U) is 1 μmolNADH min^−1 mgenzyme^−1. Rates are initial rates calculated by least squares linear regression on the first 10 minutes of the reaction. For KM determination, concentrations of substrate/cofactors at least 5×-higher than the KM were used, while the species of interest was varied in concentration; substrate/cofactor concentrations: 500 μM NADH; 15 mM 2-oxoadipate; 20 mM MgCl2. Reported α-hydroxyadipate (2-hydroxy adpic acid) Vmax values were obtained from 2-oxoadipate KM determination experiments. Michaelis-Menten KM and Vmax parameters were estimated by fitting data to a curve using nonlinear regression in GraphPad Prism 5.0 (GraphPad Software, La Jolla, Calif.).
(§2) Assays were performed with 40 ng/μL enzyme, 15 mM 2-oxoadipate, 100 μM NADH, 20 mM MgCl2 and 100 mM HEPES, pH 7.3 in 10 or 20 μL volumes in 384-well black microplates. NADH concentration was monitored by the decrease in fluorescence (excitation wavelength: 340 nm; emission wavelength: 450 nm) on a fluorescent plate reader. The fluorescence intensities were converted to NADH concentrations based on NADH standards. Reactions with high amounts of NADH (>300 μM) were monitored by the UV absorbance of NADH at 340 nm in a 40 μL reaction volume in a clear 96-well plate on the same plate reader. Reactions with ScHIDH were carried out at 25° C. and reactions with TtHIDH were carried out at 45° C. Reported rates are initial rates from the first 10 minutes of reaction. For KM determination, concentrations of substrate at least 5×-higher than the KM were used (for NADH, 500 μM; for 2-oxoadipate, 15 mM) while the substrate of interest was varied in concentration. KM and Vmax were estimated by fitting data to equation (1) using nonlinear regression, where x is substrate concentration and y is the rate. y=Vmax·x/KM+x (1) Rate data for ScHIDH-R143C, -R143H, and -R143K are summarized in Table 3.

A short description of series [2]: Magnesium dependence of ScHIDH-R143H. The protocol: as §2
ScHIDH-R143H activity was assayed at various MgCl2 concentrations under the standard reaction conditions described in Example 11. The rate is relative to the rate at 20 mM MgCl2. […]

The nature of series [3]: NADH oxidation with 2-oxoadipate plus CO2 added as NaHCO3 (reductive carboxylation). The settings on record: up to 60 mM NaHCO3. The procedure: (§3) NADH, 2-oxoadipate, 2-oxoglutarate, 2-heptandioate, and MgCl2 were from Sigma. Standard reaction mixes contained 15 mM 2-oxoadipate, 100 μM NADH, and a reaction buffer with final concentrations of 20 mM MgCl2 and 500 mM HEPES, pH 7.3. NADH oxidation was monitored by the decrease in fluorescence with excitation of 340 nm and emission of 450 nm on a PolarSTAR Optima plate reader (BMG Labtech). Fluorescence monitored reactions were carried out in 10-μL volumes in a 384-well black microplate (Greiner 788076) covered with clear optical film. The levels of fluorescence were converted to NADH concentrations based on standards of NADH in reaction buffer containing BSA. Reactions with high amounts of NADH were monitored by the UV absorbance of NADH at 340 nm in 40-μL reaction volumes in clear 96-well plates.
as §1

Series [4] is described as follows: pH dependence of ScHIDH-R143H. The protocol: as §2
ScHIDH-R143H activity was assayed in HEPES buffer at various pH under the standard reaction conditions described in Example 11, above. The rate is relative to the rate at pH 7.4. […]

Series [5] in a line: Kinetic characterization of ScHIDH mutants: KM NADH. The procedure:
as §1, §2

The nature of series [6]: NADH oxidation rate of purified HIDH enzymes with 2-oxoadipate (fluorescence / UV 340 nm). The protocol:
as §3, §1, §2

A short description of series [7]: Enantiospecific LC-MS/MS quantification of (R)- and (S)-2-hydroxyadipate product. The protocol: Quantitative, enantiospecific LC-MS/MS was performed based on the procedure described for 2-hydroxyglutarate. Jin et al., PLoS one 6, e16812: 1-8 (2011); Struys, et al., Clin. Chem. 50: 1391-1395 (2004). To 20 μL of reaction mix, 2 μL of 130 μg/mL of a racemic mixture of [3,3,4,4-^2H4]-2-hydroxyglutarate (internal standard) in water was added and the mixture dried by vacuum centrifuge (50° C., 15 min). The dry residue was treated with 50 mg/mL freshly prepared diacetyl-L-tartaric anhydride (Sigma) in dichloromethane/glacial acetic acid (4:1 by volume) and heated (75° C., 30 min). After drying (50° C., 15 min) the residue was dissolved in 100 μL of LC mobile phase A (see below) for analysis. An Agilent 1200 series HPLC (Santa Clara, Calif.) was used for liquid chromatography (LC) and a Sciex/Applied Biosystems API 3200 QTrap (Carlsbad, Calif.) was used for triple quadrupole mass spectrometry (MS/MS). Mobile phase A: water, 3% acetonitrile, 280 μL ammonium hydroxide (^˜25%), pH adjusted to 3.6 with formic acid (^˜98%). Mobile phase B: methanol. Analytical column: Kinetex C-18, 150×4.6 mm, 2.6 μm, and SafeGuard C-18 4×3 mm guard-column from Phenomenex (Torrance, Calif.). Column temperature: 45° C. Elution gradient at 1 mL/min flow rate: 0-1 min 0% B, 1-2 min 0-100% B, 2-3.5 min 100% B, 3.5-4 min 100-0% B, 4-10 min 0% B. Injection volume: 10 μL. Q1/Q3 (m/z) transitions were monitored: 377/161, 2-hydroxyadipate (2HA) and 367/151, [3,3,4,4-^2H4]-2-hydroxyglutarate (2HG-d4). To calibrate, 0, 0.16, 0.54, 1.8, 6, and 20 μg/mL 2-hydroxyadipate (Sigma), synthesized as described above, was analyzed in reaction buffer. (R)- and (S)-enantiomers were discriminated based on time of elution from the HPLC column, using the relative elution time for (R)-2-hydroxyglutarate compared to the racemic mixture of 2-hydroxyglutarate described previously to identify the (R)-2-hydroxyadipate enantiomer. Jin et al., PLoS one 6, e16812: 1-8 (2011). Standards were analyzed alongside experimental samples. Accuracy acceptance criteria were 85% for all but the lowest level (0.16 μg/mL, 80%).

Series [8] is described as follows: NADH oxidation rate of purified HIDH mutants with 2-oxoglutarate as substrate. The settings on record: ScHIDH-R143H. The procedure:
as §3
(§4) Reaction rates are NADH oxidation per unit time per unit of purified enzyme or crude lysate and 1 Unit (U) is 1 μmolNADH min^−1 mgenzyme^−1. Rates are initial rates calculated by least squares linear regression on the first 10 minutes of the reaction. For KM determination, concentrations of substrate/cofactors at least 5×-higher than the KM were used, while the species of interest was varied in concentration; substrate/cofactor concentrations: 500 μM NADH; 15 mM 2-oxoadipate; 20 mM MgCl2. […]

The nature of series [9]: NADH oxidation rate of purified ScHIDH-R143H with 2-oxoheptanedioic acid as substrate. The procedure:
as §3, §4

Where [10] appears, read: ScHIDH, initially 2 mM NADH and 2 mM 2-oxoadipate, 10 h.

Usually Km stands for the concentration of substrate that gives half-maximal velocity. As a reminder, the Vmax is the top rate of the reaction or transport when substrate is in excess.

B1: ScHIDH-R143H: Saccharomyces cerevisiae homoisocitrate dehydrogenase R143H mutant, an (R)-2-hydroxyadipate dehydrogenase (protein)
chain: MFRSVATRLSACRGLASNAARKSLTIGLIPGDGIGKEVIPAGKQVLENLNSKHGLSFNFIDLYAGFQTFQETGKALPDETVKVLKEQCQGALFGAVQSPTTKVEGYSSPIVALRREMGLFANVRPVKSVEGEKGKPIDMVIVHENTEDLYIKIEKTYIDKATGTRVADATKRISEIATRRIATIALDIALKRLQTRGQATLTVTHKSNVLSQSDGLFREICKEVYESNKDKYGQIKYNEQIVDSMVYRLFREPQCFDVIVAPNLYGDILSDGAAALVGSLGVVPSANVGPEIVIGEPCHGSAPDIAGKGIANPIATIRSTALMLEFLGHNEAAQDIYKAVDANLREGSIKTPDLGGKASTQQVVDDVLSRL
modifications: ScHIDH R143H polypeptide
notes: Saccharomyces cerevisiae homoisocitrate dehydrogenase R143H mutant, an (R)-2-hydroxyadipate dehydrogenase
As to B1, the Km in [1] (Table 3, 40 ng/μL enzyme, 500 μM NADH, 20 mM MgCl2, pH 7.3, 25° C.) is 2000 µM; in series [1] (purified enzyme) it was 1400 ± 250 µM; in series [2] (Table 3, read-out: KM MgCl2), 1200 µM; in [2] (various MgCl2 concentrations, standard conditions, read-out: KM for MgCl2), 1100 µM; in series [5] (Table 3, 15 mM 2-oxoadipate, 20 mM MgCl2, pH 7.3, 25° C.) it was 88 µM; in [5] (purified enzyme), 85 ± 21 µM. In series [1] (Table 3, from 2-oxoadipate KM experiments), the Vmax came to 0.036 µmol/min/mg. In series [1] (purified enzyme), the “maximal velocity (Vmax)” value is on record as 0.020±0.0027 U. The “stimulation by addition of NaHCO3” value in series [3] is recorded as “not stimulated”. Besides, the pH optimum in [4] (HEPES buffer at various pH, standard conditions) stood at 7.4; in [4] (Table 3, HEPES buffer) it was 7.4. Further, the “rate of NADH oxidation in the presence of 2-oxoadipate” value in [6] (ScHIDH, 15 mM 2-oxoadipate, 100 μM NADH, 0.4 μg purified enzyme) is reported as 0.0096±0.000014 U. Also, the “decrease of NADH concentration after 10 h compared to a buffer control” value in [6] (setting [10]) is reported as 0.62 mM. In series [6] (ScHIDH-R143H, no substrate), the “NADH oxidation rate, reaction containing no substrate” value was < 0.001 U. In addition, the “concentration of (R)-2-hydroxyadipate after 10 h” value in series [7] (setting [10]) turned out to be 0.97 mM. For the same molecule, the Enantiomeric Excess in series [7] (Table 3, (R)-2-hydroxyadipate product) is > 99.1%. In addition, in [8], the “NADH oxidation rate in the presence of 15 mM 2-oxoglutarate” value is < 0.001 U. For the same molecule, the “NADH oxidation rate in the presence of 15 mM 2-oxoheptanedioic acid” value in [9] is < 0.001 U.
